Data reported in US20230203156A1 (WILLIAM ROBERT ARATHOON LIVING TRUST DATED AUGUST 29 2016, published 2023).

Each binder was assayed against human MDR1 (multidrug resistance protein 1) (human, UniProt P08183 1-1280) (assay: cell-based or functional assay).

IC50 of vincristine on N6/ADR cells with antibody [nM] | Binder
0.0299 | KB1.273A (antibody, human IgG1, V domains shown) VH: QVQLQQSGPELVKTGASVKISCKASGYSFSNYYIHWVKQSHGKSLEWIGFISCYNGATFYNQKFKGKATFTVDTSSSTAYMKFNSLTFEDSAVYYCARLPIQFGNFYPMDYWGQGTSVTVSS VL: QIVLTQSPAIMSASLGERVTMTCTASSSVSSSYLHWYQQKPGSSPKLWIYSTSNLASGVPARFSGSGSGTSYSLTISSMEAEDAATYYCHQYHRSPPTFGAGTKLELK
2.93 | KPA08 (antibody, V domains shown) VH: EVKVVESGGVLVRPGGSLKLSCAASGFTFSRYTMSWVRQTPEKRLEWVATISSGGGNTYYPDSVKGRFTVSRDNAMSSLYLQMSSLRSEDTALYYCARYGAGDAWFAYWGQGTLVTVSS VL: DVLMTQTPVSLSVSLGDQASISCRSSQSIVHSTGNTYLEWYLQKPGQSPKLLIYKISNRFSGVPDRFSGSGSGTDFTLKISRVEAEDLGVYYCFQASHFPRTFGGGTKLEIK
0.0062 | B1.263 (antibody, human IgG1, V domains shown) VH: EVKLVESGGGLVKPGGSLKLSCAASGFTFSNYGMSWVRQTPEKRLEWVAAISSNGAYTYFPDTVKGRFTISRDNAKNTLYLQMNSLRSEDTALYYCTRRGWDTWFAYWGQGTLVTVSS VL: DVVMTQTPLSLPVSLGDQASISCRSSQNIVHSTGNTYLEWYLQKPGQSPKLLIYKVSNRFSGVPDRFSGSGSGTDFTLKISRVEAEDLGVYYCFQGSHVPWTFGGGTKLEIK
0.0386 | B1.217 (antibody, human IgG1, V domains shown) VH: EVQLVESGGALVKPGGSLKLSCAASGFTFSNYAMSWVRQTPEKRLEWVATISSGGSYTYYPDSVKGRFTISRDNAKNTLYLQMSSLRSEDTALYYCTKYSNYGRFAYWGQGTLVTVST VL: DVLMTQTPLSLPVSLGDQASISCRSSQSIVHSTGNTYLEWYLQKPGQSPKLLIYKVSNRFSGVPDRFSGSGSGTDFTLKISRVEAEDLGVYYCFQGSHIPYTFGGGTKLEIK
0.0622 | B1.89 (antibody, human IgG1, V domains shown) VH: KVQLVESGGALVKPGGSLKLSCAASGFTFSNYAMSWVRQTPEKRLEWVATISSSGSYTYFPDSVKGRFTISRDNAKNTLYLQMSSLRSEDTALYYCARYGYDEAWFASWGQGTLVTVSA VL: DVLMTQTPLSLPVSLGDQASISCRSSQTIVHSNGNTYLEWYLQKPGQSPKLLIYKVSKRFSGVPDRFSGSGSGTDFTLKISRVEAEDLGVYYCFQGSHFPRTFGGGTKLEIK
0.0192 | B1.264 (antibody, human IgG1, V domains shown) VH: EVKLVESGGALVKPGGSLKLSCAASGFTFSNYAMSWVRQTPEKRLEWVATISSGGSNTYYPDSVMGRFTISRDNAKNTLYLQMSSLRSEDTALYYCARYSNYGWFAYWGQGTLVTVSS VL: DVVMTQTPLSLPVSLGDQASISCRSSQSIVHSNGNTYLEWYLQKPGQSPKLLIYKVSNRFSGVPDRFSGSGSGTDFTLKISRVEAEDLGVYYCFQGSLVPRTFGGGTKLEIK
0.0323 | KB1.269A (antibody, human IgG1, V domains shown) VH: EVQLVESGGASVKPGGSLKLSCAASGFTFSNYAMSWVRQTPEKRLEWVATISSGGSYTYYLDSVKGRFTISRDNAKNTLYLQMSSLRSEDTALYYCARYYVYDAWFAYWGQGTLVTVSA VL: DVVMTQTPLSLPVSLGDQASISCRSSQSIVHSTGNTYLEWYLQKPGQSPKLLIYKVSNRFSGVPDRFSGSGSGTDFTLKISRVEAEDLGVFYCFQGSHVPRTFGGGTKLEIK
2.83 | B1.27 (antibody, human IgG1, V domains shown) VH: EVKLVESGGGLVKPGGSLKLSCAASGFTFSSYTMSWVRQTPEKRLEWVATVSSGGGNTYYPDSVKGRFTISRDNAKNNLYLQMSSPRSEDTALYYCARYGNYGWFTYWGQGTLVTVSS VL: DVVMTQTPLSLPVSLGDQASISCRSSQNIVHSTGNTYLDWYLQKPGQSPKLLIYKVSNRFSGVPDRFSGSGSGTDFTLKISRVEAEDLGVYFCFQGSHIPRTFGGGTKLEIK
0.0929 | B1.188 (antibody, human IgG1, V domains shown) VH: EVMLVESGGALVKPGGSLKLSCAASGFTFSNYAMSWVRQTPEKRLEWVATISSGGSYTYYPDSVKGRFTISRDNARNTLYLQMSSLRSEDTAMYYCARGYGNFAWFAYWGQGTLVTVSA VL: DIQMTQSPLSLPVSLGDQASISCRSSQSIVHSTGNTYLEWYLQKPGQSPKLLIYKVSNRFSGVPDRFSGSGSGTDFTLKISRVEAEDLGVYYCFQGSHVPFTFGSGTKLEIK
0.0167 | B1.198 (antibody, human IgG1, V domains shown) VH: EVQLVESGGALVKPGGSLKLSCAASGFTFSNYAMSWVRQTPEKRLEWVATISSGGSYTYYPDSVKGRFTISRDNAKNTLYLQMSSLRSEDTALYYCAKYSNYGRFAYWGQGTLVTVSA VL: DVVMTQTPLSLPVSLGDQASISCRSSQSIVDSNGNTYLEWYLQKPGQSPKLLIYKVSNRFFGVPDRFSGSGSGTDFTLKISRVEAEDLGVYYCFQGSHVPYTFGGGTKLEIK
0.029 | B1.278 (antibody, human IgG1, V domains shown) VH: QVQLQQSGPELVKPGASVKISCKASGYSFTGYFMNWVMQSHGKSLEWIGRINPYNGDTFYNQKFKGKATLTVDKSSGTAHMELRSLASEDSAVYYCARCYYYGSSSYGMDYWGQGTSVTVSS VL: QIVLTQSPASLAVSLGQRATISCRASESVHNYGVSFMNWFQQRPGQPPKLLIHAASHQGSGVPARFTGSGSGTDFSLNIHPMEEDDIAMYFCQQSKEVPLTFGAGTKLKLK
0.0035 | B1.225 (antibody, human IgG1, V domains shown) VH: EVQLVESGGALVKPGGSLKLSCAASGFTFSNYGMSWVRQTPEKRLEWVATISSGGSYTYYPDTVKGRFTISRDNAKNTLHLQMSSLRSEDTALYYCARRGTNDAWFGYWGQGTLVTVSA VL: DVVMTQTPLSLPVSLGDQASISCRFSQSIVHSNGNTYLEWYLQKPGQSPKLLIYKVSNRFFGVPDRFSGSGSGTDFTLKISRVEAEDLGVYFCFQGSHVPQYTFGGGTKLEIK
0.029 | B1.276 (antibody, human IgG1, V domains shown) VH: EVKLVESGGALVKPGGSLKLSCAASGFTFRNYAMSWVRQTPEKRLEWVATISSDGSYTYHPDSVKGRFTISRDNARNTLYLQMSSLRSEDTAMYSCTRQGNWGRTWFTYWGQGTLVTVSS VL: QIVLTQSPAIMSASPGEKVTMTCRASSSVSSSYLHWYQQKSGASPKLWIYSTSSLASGVPARFSGSGSGTSYSLTISSVEAEDAATYYCQQYSGYPLTFGAGTKLELK
0.0103 | B1.219 (antibody, human IgG1, V domains shown) VH: EVQLVESGGALVKPGGSLKLSCAASGFTFSNYAMSWVRQTPEKRLEWVATISSVGSYTYYPDSVKGRFTISRDNAKTTLYLQMSGLRSEDTALYYCAKYSNYGRFASWGQGTLVTVST VL: DVLMTQTPLSLPASLGDQASISCRSSQSIVHSSGNTYLEWYLQKPGQSPRLLIYKVSNRFFGVPDRISGSGSGTDFTLRISRVEAEDLGVYYCFQGSHVPYTFGGGTKLEIE
0.0068 | B1.223 (antibody, human IgG1, V domains shown) VH: EVKLVESGGALVKPGGSLKLSCAASGFTFSNYAMSWVRQTPEKRLEWVATISSGGSYTYYPDSVKGRFTISRDNAKTTLYLQMSGLRSEDTALYYCAKFSNYGRFASWGQGTLVTVSS VL: DIQMIQSPLSLPVSLGDQASISCRSSQSIVHSSGNTYLEWYLQKPGQSPRLLIYKVSNRFFGVPDRISGSGSGTDFTLRISRVEAEDLGVYYCFQGSHVPYTFGGGTKLELK
0.0528 | B1.178 (antibody, human IgG1, V domains shown) VH: EAQLVESGGALVKPGGSLKLSCSASGFTFSNYAMSWVRQTPEKRLEWVATISSGGTNTYYPGSVKGRFTIARDNAKNTLYLLMSSLRSEDTALYFCARYSNLAWFASWGQGTLVTVSA VL: DVVMTQTPLSLPVSLGDQASISCRSSQSIVHSNGNTYLEWYLQKPGQSPKFLISKVSNRFSGVPDRFSGSGSGTDFTLKISRVEAEDLGIYYCFQGSHVPYTFGGGTKLEIK
0.0781 | B1.275 (antibody, human IgG1, V domains shown) VH: EVMLVESGGALVKPGGSLKVSCAASGFTFSNYAMSWVRQSPEMRLEWVATISSGGTNTYYPDSVKGRFTISRDNARNTLYLQMSSLRSKDTAMYYCARYSNYGWFPYWGQGTTLTVSS VL: DVVMTQTPLSLPVSLGDQASISCRSSQTIVHSDGYTYLEWYLQKPGQSPKLLIYKVSNRFSGVPDRFSGSGSGTDFTLRISRVEAEDLGVYYCFQGSHVPYTFGGGTKLEIK
0.0216 | B1.201 (antibody, human IgG1, V domains shown) VH: EVQLVESGGALMKPGGSLKFSCAASGFTFTNYAMSWVRQTPEKRLEWVATISSGGSNTYYSDSVKGRFTISRDNAKTTLYLQMSGLRSEDTALYYCAKFSNFGRFASWGQGTLVTVSA VL: DVLMTQTPLSLPVSLGDQASISCRFSQSIVHSSGNTYLEWYLQKPGQSPRLLIYKVSNRFFGVPDRISGSGSGTDFTLRISRVEAEDLGVYYCFQGSHVPYTFGGGTKLEIK
0.0095 | B1.207 (antibody, human IgG1, V domains shown) VH: GVQLVESGGALVKPGGSLKLSCAASGFTFSNYAMSWVRQTPEKRLEWVATISSGGSYTYYPDSVKGRFTISRDNAKTTLYLQMSGLRSEDTALYYCAKYSNYGRFASWGQGTLVTVST VL: DVLMTQTPLSLPVSLGDQASISCRSSQSIVHSSGNTYLEWYLQKPGQSPRLLIYKVSNRFFGVPDRISGSGSGTDFTLRISRVEAEDLGVYYCFQGSHVPYTFGGGTKLEIK
0.0138 | B1.226 (antibody, human IgG1, V domains shown) VH: EVQLVESGGALVKPGGSLKLSCAASGFTFSNYAMSWVRQTPETRLEWVATISSGGSYTYYPDSVKGRFTISRDNAKNTLYLQMSSLRSEDTALYYCARYSNLAWFAYWGQGTLVTVSA VL: DVVMTQTPLSLPVSLGDQASISCRSSQSIVHSNGNTYLDWYLQKPGQSPKFMIYKVSNRFSGVPDRFSGSGSGTDFTLKISRVEAEDLGVYYCFQGSHVPYTFGGGTKLEIK
